Assay results taken from US20260275319A1 (MAX PLANCK GESELLSCHAFT ZUR F RDERUNG DER WISSENSCHAFTEN E V, published 2026).
Primed or numbered codes have the meaning given here. Ends that are not written are not given here. FITC′ = fluorescein isothiocyanate label; Ahx = NCCCCCC(=O)O

B2: M. jannaschii Adriase S1A mutant with C-terminal His-tag (enzyme)
chain: ALIICYYGKNGAVIGGDRRQIFFRGSEENRKILEEKLYSGEIKSEEELYKLAEKLNIKIIIEDDREKVRKISDSVVCGEVRSLGIDAKRRRVYATKGKCAIVDILNDTVTNQTIKEGFGIVVLGNRFLKKKAEEELKRTAKLFPMMPIQQIEDAIKEIFEKLKWHPTVSKEYDIYSVNKYEKNFEEVIKKDIESLFKYREQLRKQLIDFGKVMSIVNKIVKNGEIGVIKDGKLHLYDDYIAIDKIDPNPKVFKVVDVEGNFKDGDIVVIENGDMKIKGTNEKVTTKYIIIHKGSHHHHHH
notes: The entry is the S1A mutant itself
B3: (5)KDPGA(10) peptide, M. jannaschii MtrA-derived, C-terminal FITC (peptide)
peptide: KECLSKDPGAIDEDPFIIEL-{K(FITC)}
notes: Synthetic peptide (Genscript); also called (5)KDPGA(10F)
B4: (10)KDPGA(10) peptide, M. jannaschii MtrA-derived, C-terminal FITC (peptide)
peptide: ITQAIKECLSKDPGAIDEDPFIIEL-{K(FITC)}
B5: (15)KDPGA(10) peptide, M. jannaschii MtrA-derived, N-terminal FITC-Ahx (peptide)
peptide: {FITC′-Ahx}-EDIGKITQAIKECLSKDPGAIDEDPFIIEL
notes: Synthetic peptide (Genscript); also called (F15)KDPGA(10)
B6: (0)KDPGA(10) peptide, M. jannaschii MtrA-derived, C-terminal FITC (peptide)
peptide: KDPGAIDEDPFIIEL-{K(FITC)}
notes: Synthetic peptide (Genscript)
B7: M. jannaschii MtrA^Δ194-245 (enzyme)
chain: MHHHHHHGSMVMSMANKREPAPGWPIVSGEYVVGNPESCVGVVTLGSHGLEQACIDAGAAIAGPCHTENLGIEKVVANYISNPNIRFMILCGSEVQGHITGQCFKALWENGIGDDGGIIGAKGAIPFLENVNKEAVERFRRQIVEVVDLIDCEDIGKITQAIKECLSKDPGAIDEDPFIIELEGGKGGGEEEEGVIKPITPE
notes: For MST it was labelled with NT-647-NHS; also called MJ_0851

How the values were obtained:
BSA = target: T1, BSA (UniProt P02769 25-607); test: pulldown on Ni-NTA beads with His6-tagged Adriase, SDS-PAGE of flow-through, washes and eluate
T1 construct: also called control protein BSA
T1 sequence (P02769 25-607 limits assumed): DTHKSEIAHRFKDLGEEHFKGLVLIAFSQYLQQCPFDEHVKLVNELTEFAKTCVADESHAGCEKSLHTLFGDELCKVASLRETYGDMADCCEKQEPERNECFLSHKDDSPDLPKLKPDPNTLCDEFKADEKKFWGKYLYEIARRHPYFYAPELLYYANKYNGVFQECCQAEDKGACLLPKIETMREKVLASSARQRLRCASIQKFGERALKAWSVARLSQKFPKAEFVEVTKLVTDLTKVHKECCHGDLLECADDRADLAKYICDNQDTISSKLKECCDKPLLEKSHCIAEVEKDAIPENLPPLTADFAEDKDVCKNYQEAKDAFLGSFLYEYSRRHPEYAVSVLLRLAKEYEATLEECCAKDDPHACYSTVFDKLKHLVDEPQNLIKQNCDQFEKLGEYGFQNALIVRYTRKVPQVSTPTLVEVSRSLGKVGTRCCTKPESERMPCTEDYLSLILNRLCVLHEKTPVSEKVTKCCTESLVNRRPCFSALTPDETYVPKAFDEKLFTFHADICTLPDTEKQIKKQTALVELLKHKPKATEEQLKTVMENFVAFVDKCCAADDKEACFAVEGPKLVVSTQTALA

[1] = target: T2, M. mazei Ub-(5)KDPGA(10) with N-terminal His-tag; test: SDS-PAGE time course of Adriase with Ub-(5)KDPGA(10), band of the covalent conjugate
T2 chain: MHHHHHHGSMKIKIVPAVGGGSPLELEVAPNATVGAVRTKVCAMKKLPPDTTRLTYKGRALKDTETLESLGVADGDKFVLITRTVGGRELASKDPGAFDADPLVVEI

[2] = target: B7; test: microscale thermophoresis (MST), fitted curve
[3] = target: T3, M. jannaschii MtrA^Δ174-245 with N-terminal His6-tag (Methanocaldococcus jannaschii, UniProt Q58261 1-169); test: microscale thermophoresis (MST), fitted curve, MtrA^Δ174-245
T3 sequence: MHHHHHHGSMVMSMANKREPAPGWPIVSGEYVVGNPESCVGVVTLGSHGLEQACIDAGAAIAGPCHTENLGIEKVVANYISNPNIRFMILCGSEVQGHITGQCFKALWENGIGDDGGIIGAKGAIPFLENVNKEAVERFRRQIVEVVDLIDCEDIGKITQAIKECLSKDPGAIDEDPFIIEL

[4] = target: B4; test: microscale thermophoresis (MST), fitted curve, peptide (10)KDPGA(10)
[5] = target: B5; test: microscale thermophoresis (MST), fitted curve, peptide (15)KDPGA(10)
[6] = target: B6; test: microscale thermophoresis (MST), fitted curve, peptide (0)KDPGA(10)
[7] = target: B3; test: microscale thermophoresis (MST), fitted curve, peptide (5)KDPGA(10)
[8] = target: B2; test: microscale thermophoresis (MST); table row (5)KDPGA(10)
[9] = target: B2; test: microscale thermophoresis (MST); table row (10)KDPGA(10)
[10] = target: B2; test: microscale thermophoresis (MST); table row (15)KDPGA(10)
[11] = target: B2; test: microscale thermophoresis (MST); table row (0)KDPGA(10)
[12] = target: B2; test: microscale thermophoresis (MST), three measurements; table row MtrA
[13] = target: T4, M. jannaschii Adriase with C-terminal His-tag (Methanocaldococcus jannaschii, UniProt Q57968 2-293); test: SDS-PAGE time course of the reaction in the presence of MtrA, band of the covalent conjugate
T4 construct: Active enzyme; also called unmodified Adriase; MJ_0548
T4 sequence: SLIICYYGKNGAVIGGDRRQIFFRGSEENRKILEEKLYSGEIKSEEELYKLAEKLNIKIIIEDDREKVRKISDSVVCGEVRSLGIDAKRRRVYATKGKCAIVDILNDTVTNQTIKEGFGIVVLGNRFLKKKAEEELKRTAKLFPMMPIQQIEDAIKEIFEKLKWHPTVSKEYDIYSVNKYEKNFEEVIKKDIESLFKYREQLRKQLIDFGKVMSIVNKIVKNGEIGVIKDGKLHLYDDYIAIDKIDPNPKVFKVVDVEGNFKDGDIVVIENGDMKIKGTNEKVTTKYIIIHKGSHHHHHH

[14] = target: B7; test: size-exclusion chromatography with light scattering (SEC-MALS) of the 1:1 molar mixture
[15] = target: T5, MtrE of M. mazei (subunit of the MtrA-MtrH complex), from whole cell extract (Methanosarcina mazei); test: pulldown from M. mazei whole cell extract with Strep-tagged Adriase, LC-MS/MS (Experiment 2.1)
T5 sequence (P80651 whole entry, looked up): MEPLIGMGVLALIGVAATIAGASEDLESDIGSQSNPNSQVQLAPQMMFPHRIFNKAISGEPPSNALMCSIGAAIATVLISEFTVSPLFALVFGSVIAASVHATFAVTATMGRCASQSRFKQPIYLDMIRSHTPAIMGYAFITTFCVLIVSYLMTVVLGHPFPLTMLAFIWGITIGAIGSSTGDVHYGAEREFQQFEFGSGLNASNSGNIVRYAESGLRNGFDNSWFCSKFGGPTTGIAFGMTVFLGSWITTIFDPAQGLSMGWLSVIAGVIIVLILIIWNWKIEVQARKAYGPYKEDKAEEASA

[16] = target: T6, MtrB of M. mazei (subunit of the MtrA-MtrH complex), from whole cell extract (Methanosarcina mazei); test: as above
T6 sequence (P80655 whole entry, looked up): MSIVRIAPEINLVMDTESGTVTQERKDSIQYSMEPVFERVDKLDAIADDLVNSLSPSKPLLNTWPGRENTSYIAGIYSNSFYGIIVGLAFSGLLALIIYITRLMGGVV

[17] = target: T7, MtrG of M. mazei (subunit of the MtrA-MtrH complex), from whole cell extract (Methanosarcina mazei); test: as above
T7 sequence (P80656 whole entry, looked up): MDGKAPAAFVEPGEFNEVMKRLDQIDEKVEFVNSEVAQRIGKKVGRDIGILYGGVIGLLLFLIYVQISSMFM

[18] = target: T8, MtrH of M. mazei (subunit of the MtrA-MtrH complex), from whole cell extract (Methanosarcina mazei); test: as above
T8 sequence (P80650 1-316, looked up): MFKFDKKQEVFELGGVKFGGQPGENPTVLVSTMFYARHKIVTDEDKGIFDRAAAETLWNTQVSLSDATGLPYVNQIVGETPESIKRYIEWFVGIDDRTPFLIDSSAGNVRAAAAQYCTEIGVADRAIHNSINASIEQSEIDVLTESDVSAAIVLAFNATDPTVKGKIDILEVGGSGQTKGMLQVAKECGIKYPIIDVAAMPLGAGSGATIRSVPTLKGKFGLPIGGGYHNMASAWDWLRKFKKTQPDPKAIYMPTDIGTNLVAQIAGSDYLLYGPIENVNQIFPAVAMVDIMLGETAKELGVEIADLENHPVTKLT

B1: M. mazei Adriase with C-terminal His-tag (enzyme)
chain: TLVIAFIGKNGAVMAGDMREITFEGEKPDREKLEKELYSGSIVTDEEMQKKAEEFGVKITVADCKEKVSERNGVLVGEVSSAEGGVVKKRRLYASAGNFAIAELINTEMTLTSQGKGSNFIAFGNEFTKQVANKCFKDNWTKKSNLQDAVKILILCMETVARKTASVSKQFMIVQTASNADVLKVVEKDRNCGSHHHHHH
notes: Active form without start-methionine; also called M. mazei Adriase-His6; MM_2909
binding result (BSA): no binding | binding result [1]: binds

B2
EC50 (read off the curve) [2]: ~200 nM | EC50 (read off the curve) [3]: ~600 nM | EC50 (read off the curve) [4]: ~200 nM | EC50 (read off the curve) [5]: ~80 nM | EC50 (read off the curve) [6]: ~400 nM | EC50 (read off the curve) [7]: ~100 nM

B3
Kd [8]: 121 nM

B4
Kd [9]: 168 nM

B5
Kd [10]: 74 nM

B6
Kd [11]: 363 nM

B7
Kd [12]: 129 nM

B8: M. jannaschii Ub-KDPGA(10) (other)
chain: MHHHHHHGSMKIKIVPAVGGGSPLELEVAPNATVGAVRTKVCAMKKLPPDTTRLTYKGRALKDTETLESLGVADGDKFVLITRTVGGCGEKDPGAIDEDPFIIEL
notes: also called Ubiquitin fused to KDPGA(10)
binding result [13]: binds

B9: M. jannaschii Adriase without NTN, with C-terminal His-tag (enzyme)
chain: MEQLRKQLIDFGKVMSIVNKIVKNGEIGVIKDGKLHLYDDYIAIDKIDPNPKVFKVVDVEGNFKDGDIVVIENGDMKIKGTNEKVTTKYIIIHKGSHHHHHH
notes: also called Adriase^ΔNTN
binding result [14]: no binding

B10: M. mazei Adriase with C-terminal Strep-tag (enzyme)
chain: TLVIAFIGKNGAVMAGDMREITFEGEKPDREKLEKELYSGSIVTDEEMQKKAEEFGVKITVADCKEKVSERNGVLVGEVSSAEGGVVKKRRLYASAGNFAIAELINTEMTLTSQGKGSNFIAFGNEFTKQVANKCFKDNWTKKSNLQDAVKILILCMETVARKTASVSKQFMIVQTASNADVLKVVEKDRNCGSWSHPQFEK
notes: also called MM_2909; Archaeal Peptide Recombinase
Intensity (mass spectrometry) [15]: 2.1e+06 arbitrary units | Intensity (mass spectrometry) [16]: 1.4e+06 arbitrary units | Intensity (mass spectrometry) [17]: 860000 arbitrary units | Intensity (mass spectrometry) [18]: 6e+07 arbitrary units
